This passage reports percent of SPE-C in dimer form, percent dissociated to the monomer form and stoichiometry N results from article PMC2199005.

Experiment [1] concerns the target recombinant streptococcal pyrogenic exotoxin C (SPE-C) (Streptococcus pyogenes). The experiment can be described thus: nondenaturing SDS-PAGE.
Experiment [2] has the same target. The experiment can be described thus: SEC. A general note: In gel filtration, larger molecules generally elute earlier.

As to “recombinant streptococcal pyrogenic exotoxin C (SPE-C) (natural protein)”, the percent of SPE-C in dimer form in experiment [1] was more than 60%. For the same substance, in experiment [2], the percent dissociated to the monomer form amounted to 50% and the stoichiometry N (in general, a count of units in the complex or per binding partner) came to 2.
